Molecular target: T1, full-length Kluyveromyces lactis (Kl) Kap123, wild type
T1 chain: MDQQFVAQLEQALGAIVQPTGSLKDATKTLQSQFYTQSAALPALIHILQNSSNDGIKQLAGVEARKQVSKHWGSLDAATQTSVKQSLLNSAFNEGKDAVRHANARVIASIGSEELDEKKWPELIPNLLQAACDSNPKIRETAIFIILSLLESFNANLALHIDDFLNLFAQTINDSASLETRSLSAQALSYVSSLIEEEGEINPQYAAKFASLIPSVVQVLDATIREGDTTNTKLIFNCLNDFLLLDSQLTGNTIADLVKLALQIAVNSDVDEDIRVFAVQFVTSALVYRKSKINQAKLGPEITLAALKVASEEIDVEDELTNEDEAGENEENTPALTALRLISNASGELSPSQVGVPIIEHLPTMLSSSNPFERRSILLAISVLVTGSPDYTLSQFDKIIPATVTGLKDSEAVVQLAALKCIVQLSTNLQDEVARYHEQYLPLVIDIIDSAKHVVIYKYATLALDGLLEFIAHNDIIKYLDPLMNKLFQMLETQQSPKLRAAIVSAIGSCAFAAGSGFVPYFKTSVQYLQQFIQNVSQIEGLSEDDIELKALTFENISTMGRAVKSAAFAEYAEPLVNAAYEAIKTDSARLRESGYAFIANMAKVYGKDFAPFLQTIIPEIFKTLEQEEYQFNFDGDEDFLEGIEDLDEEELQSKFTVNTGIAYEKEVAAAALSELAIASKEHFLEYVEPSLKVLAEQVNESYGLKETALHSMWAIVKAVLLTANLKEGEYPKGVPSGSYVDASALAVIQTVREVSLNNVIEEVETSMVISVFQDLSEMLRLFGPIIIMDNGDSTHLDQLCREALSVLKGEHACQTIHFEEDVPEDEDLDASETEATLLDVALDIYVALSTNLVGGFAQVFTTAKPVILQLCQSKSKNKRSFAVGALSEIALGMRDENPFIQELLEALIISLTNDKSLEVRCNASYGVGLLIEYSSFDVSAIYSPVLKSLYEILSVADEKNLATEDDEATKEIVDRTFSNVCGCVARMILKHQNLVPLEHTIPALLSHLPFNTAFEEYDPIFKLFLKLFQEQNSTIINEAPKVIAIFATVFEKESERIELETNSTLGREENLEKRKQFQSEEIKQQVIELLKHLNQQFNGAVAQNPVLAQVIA
Assay: SPR
Conditions: chain shown with the change; 7°C; wild-type Kap123 immobilized on a CM5 chip with 7116 RU; peptides injected at 0-10 µM; parent: est. 1.00; read off a plot

Binder: SGRGQGGKGLGQGGAKRHRKI [wild-type H4_(1–21)-NLS peptide, P02309 K5Q; K12Q]
- ratio to parent: 0.4
